We go through one molecule from CN117700556A (SUZHOU ABCARTA MEDICAL TECH CO LTD; XIANGYA HOSPITAL …, dated 2024).

The target in assay [1] is T1, 叶酸受体α(Folate receptor alpha，FRα) (human, UniProt P15328 25-234).
T1 construct: whole, on cells; also called FRα蛋白
Briefly: immunohistochemistry on FFPE ovarian and breast cancer tissue, antibody at 0.5 μg/mL.

Assay [2] addresses T2, FRα抗原(SEQ ID NO:1)合成多肽.
T2 construct: KLH-coupled for immunisation; also called FRα的多肽
T2 peptide: RIAWARTELLNV
Briefly: ELISA screening of hybridoma clones on the SEQ ID NO:1 peptide. A general note: In an ELISA, binding on a coated surface is turned into a signal by an enzyme label.

T1 sequence (P15328 25-234): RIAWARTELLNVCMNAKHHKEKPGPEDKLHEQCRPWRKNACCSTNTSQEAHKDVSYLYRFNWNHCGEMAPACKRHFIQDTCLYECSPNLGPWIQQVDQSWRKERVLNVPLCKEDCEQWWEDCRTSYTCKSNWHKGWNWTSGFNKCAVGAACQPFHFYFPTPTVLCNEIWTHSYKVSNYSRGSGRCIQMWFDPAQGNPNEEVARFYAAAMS

B1: 436I6G8抗FRα小鼠单克隆抗体 (antibody, V domains shown)
VH: EVQLQQSGVELVRSGASVKVSCTPSGFNIKDYFINWVKQRPEQGLEWIGWIDPENGDTEYAPKFQGKATMTADTSSNTAYLQLSSLTSEDTAVYYCYAERVVYWGQGTLITVSA
VL: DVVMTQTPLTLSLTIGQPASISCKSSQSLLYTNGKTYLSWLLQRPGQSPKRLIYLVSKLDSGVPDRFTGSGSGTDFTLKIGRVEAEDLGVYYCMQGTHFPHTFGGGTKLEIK
notes: Variable regions were cloned into InvivoGen pFUSE-CHIg-mG1 and pFUSE2-CLIg-mK (mouse IgG1 heavy, mouse kappa light constant regions); also called 436I6G8克隆的FRα小鼠单克隆抗体; 436I6G8抗FRα单克隆抗体
Regarding B1, the binding result in assay [1] and in assay [2] was “binds” in each case.
